We go through 13 molecules from patent publication US8287850B2, “Conjugates of hydroxyalkyl starch and a protein, prepared by reductive amination” (Fresenius Kabi Deutschland GmbH, priority 2004, dated 2012).

B1: HES-GCSF 50/0.7: hG-CSF conjugated with AldehydoHES50/0.7 of example 6.1(j), prepared in example 6.2(b) (conjugate, UniProt P09919 31-207, looked up)
Granulocyte …: TPLGPASSLPQSFLLKCLEQVRKIQGDGAALQEKLVSECATYKLCHPEELVLLGHSLGIPWAPLSSCPSQALQLAGCLSQLHSGLFLYQGLLQALEGISPELGPTLDTLQLDVADFATTIWQQMEELGMAPALQPTQGAMPAFASAFQRRAGGVLVASHLQSFLEVSYRVLRHLAQP
modifications: hydroxyethyl starch conjugate HES50/0.7
B2: Neupogen: non-modified Neupogen (Amgen), rhG-CSF filgrastim, non-glycosylated, E. coli (protein, UniProt P09919 31-207, looked up)
Granulocyte …: B1 Granulocyte …
modifications: filgrastim, N-terminal Met
notes: non-modified Neupogen (Amgen), rhG-CSF filgrastim, non-glycosylated, E. coli
B3: HES-GCSF 10/0.4: hG-CSF conjugated with AldehydoHES10/0.4 of example 6.1(b), prepared in example 6.2(b) (conjugate, UniProt P09919 31-207, looked up)
Granulocyte …: B1 Granulocyte …
modifications: hydroxyethyl starch conjugate HES10/0.4
B4: HES-GCSF 10/0.7: hG-CSF conjugated with AldehydoHES10/0.7 of example 6.1(d), prepared in example 6.2(b) (conjugate, UniProt P09919 31-207, looked up)
Granulocyte …: B1 Granulocyte …
modifications: hydroxyethyl starch conjugate HES10/0.7
B5: HES-GCSF 30/0.4: hG-CSF conjugated with AldehydoHES30/0.4 of example 6.1(f), prepared in example 6.2(d) (conjugate, UniProt P09919 31-207, looked up)
Granulocyte …: B1 Granulocyte …
modifications: hydroxyethyl starch conjugate HES30/0.4
B6: Mock-incubation: reaction control: hG-CSF incubated with 197 mg/ml non-functionalized HES50/0.7 (MW 47,000 D, DS 0.76) (protein, UniProt P09919 31-207, looked up)
Granulocyte …: B1 Granulocyte …
modifications: mixed with non-functionalized HES
B7: Neulasta: non-modified Neulasta (Amgen) (conjugate, UniProt P09919 31-207, looked up)
Granulocyte …: B1 Granulocyte …
modifications: pegfilgrastim; 20 kDa PEG

One may read the half-life as how long it takes for the measured level to halve. Low values mean rapid decline, high ones slow decline.

One data set concerns mouse NFS-60 cells. Put plainly: Mitogenicity of G-CSF variants for mouse NFS-60 cells (Example 6.3). The data set is classed as cell-based. Conditions: Conc. 5 pg/ml (G-CSF content), 3 days. How it is done: G-CSF is known for its specific effects on the proliferation, differentiation and activation of hematopoietic cells of the neutrophilic granulocyte lineage. The mitogenic capacity of G-CSF variants was tested using mouse NFS-60 cells (N. Shirafuji et al., Exp. Hematol. 1989, 17, 116-119). Cells grown in RPMI medium with 10% fetal calf serum (Gibco INVITROGEN GmbH, Karlsruhe, D) containing 5-10% WEHI-3B (DSMZ, Braunschweig, D; cultivated as described by the DSMZ) conditioned medium as source of exogenous IL-3 were harvested by centrifugation, washed and aliquoted at 100,000 cells per well in a 24-well plate. Cells were allowed to adapt for 1 hour at 37° C. in RPMI medium without WEHI-3B conditioned media before G-CSF growth factor samples diluted in the same media were added. NFS-60 cells were exposed to purified G-CSF variants (purification according to examples 3A 1 und 2, protein quantification according to example 3B1):
“Mock incubation” (=reaction control, 197 mg/ml HES50/0.7, MW 47,000 D, DS 0.76, Supramol Parenteral Colloids GmbH, Rosbach Rodheim, Germany), for 3 days at 37° C. and then the cells were electronically counted (Casy TT Cell Counter, Schärfe System, Reutlingen, D).
In all cases, the amounts of protein given in the table below and FIG. 21 represent the G-CSF content of the conjugates only. […] All variants reached the same maximum stimulation level at a concentration of 250 pg/ml.
B1: the “Proliferation of mouse NFS-60 cells, induced by G-CSF variants” value (“Proliferation of mouse NFS-60 cells” below) is 0.70.
Still for that read-out and setting: to B2 belongs 1.20; to B3, 0.97.
On the same count and under the same terms, as for B4, the figure is 0.93.
With B5, the “Proliferation of mouse NFS-60 cells” value was 1.21.
Same read-out and setting: as for B6, the figure is 1.31; as for B7, 0.80.

The data set is the same for the next values; noted with them: Conc. 10 pg/ml (G-CSF content), 3 days.
As for B1, the “Proliferation of mouse NFS-60 cells” value stood at 0.97.
On to B2, for which the “Proliferation of mouse NFS-60 cells” value was 1.69.
The same measure, in the same setting: to B3 belongs 1.40; to B4, 1.44; to B5, 1.62.
Still for that read-out and setting: to B6 belongs 1.91.
Same read-out and setting: to B7 belongs 1.12.

The same data set, now with this note: Conc. 25 pg/ml (G-CSF content), 3 days.
As for B1, the “Proliferation of mouse NFS-60 cells” value was determined as 1.68.
Take B2: the “Proliferation of mouse NFS-60 cells” value is 2.33.
Still for that read-out and setting: to B3 belongs 2.17.
Same read-out and setting: to B4 belongs 2.14.
B5: the “Proliferation of mouse NFS-60 cells” value is 2.28.
In the case of B6, the “Proliferation of mouse NFS-60 cells” value is on record as 2.38.
The same measure, in the same setting: to B7 belongs 1.83.

The same data set, now with this note: Conc. 50 pg/ml (G-CSF content), 3 days.
Turning to B1, the “Proliferation of mouse NFS-60 cells” value turned out to be 2.15.
On to B2, for which the “Proliferation of mouse NFS-60 cells” value stood at 2.49.
Same read-out and setting: as for B3, the figure is 2.67; as for B4, 2.41.
Same read-out and setting: to B5 belongs 2.50; to B6, 2.47; to B7, 2.25.

Still in this data set, the particulars now being: Conc. 250 pg/ml (G-CSF content), 3 days.
In the case of B1, the “Proliferation of mouse NFS-60 cells” value turned out to be 2.32.
Consider B2, for which the “Proliferation of mouse NFS-60 cells” value is reported as 2.41.
Same read-out and setting: as for B3, the figure is 2.75.
Still for that read-out and setting: as for B4, the figure is 2.41; as for B5, 2.60.
Consider B6, for which the “Proliferation of mouse NFS-60 cells” value was 2.41.
The same measure, in the same setting: to B7 belongs 2.33.

Tested on in another data set: not listed separately
Put plainly: In-vivo half-life of alpha1AT samples in mice (alpha1AT-ELISA). The following applies: 100 μl of 50 μg/ml i.v. tail vein, female BALB/c mice. How it is done: Female mice aged 8-10 weeks (BALB/cOlaHsd, Harlan GmbH, Borchen, Germany) were utilized as test organism (42 mice, 14 per sample). The “is bodyweight” of each animal was detected right before administration of the different sample solutions. 100 μl of a 50 μg/ml solution of the samples outlined below in a puffer pH=7.2 (20 mmol sodium phosphate, 150 mmol sodium chloride) were injected intravenously in the tail vein of the mice.
At 1, 2, 4, 10, 24, 31, […], hours after injection, two mice of each group were killed and whole blood samples (˜500 μl) were withdrawn from the heart of the animals. Serum was prepared using Microvette® 500 Z-Gel (Sarstedt, Nümbrecht, Germany). The serum samples were stored at −80° C. until the beginning of the alpha1AT concentration measurements.
alpha1AT concentrations were detected using a commercially available alpha1AT-ELISA (Immundiagnostik, Bensheim, Germany) following the manufacturers instructions.
On the technique in general: In an ELISA, binding on a coated surface is turned into a signal by an enzyme label.
For “HES-A1AT-conjugate: conjugate of aldehydo-HES (A) and (B) (MW 57,000 D, DS 0.76) with rh A1AT, example 5.5”, the “Plasma half-life in mice” value is recorded as 3.6 h.
Same read-out and setting: to “Sample 3: plasma derived h alpha1 AT (SERVA Electrophoresis GmbH) [reference compound]” belongs 3.2 h; to “A1AT: rh A1AT provided by GTC Biotherapeutics Inc., lot No. 080604A; starting material for the conjugation [Example A1AT]”, 1.2 h.

Tested on in the next data set: not listed separately
Kind of data set: In vivo half-life of G-CSF samples in mice (ELISA of plasma). The following applies: 100 μg per kg i.v. tail vein, female BALB/c mice. The protocol:
Female mice BALB/cOlaHsd (Harlan GmbH/Borchen) were used. On the day of administration, the is weights of the animals were measured (19-22 g). 100 μg per kg body weight of the chemically modified rh-G-CSF sample as prepared in Example 6.2(b) as well as Neupogen® and Neulasta® (Amgen) samples were each injected intravenously in the tail vein of nine mice. At 1, 3, 6, 11, 22, 30, 49, 72 hours after injection (see table below), samples of approx. 150 μl whole blood were taken from the tail vein or the retrobulbar venous plexus from 3 mice of the respective group using capillaries containing sodium-heparin (Hirschmann, Eberstadt) and stored on ice until preparation of plasma.
Whole blood was centrifuged for 10 minutes at 2000 g. Plasma was transferred to another tube and recentrifuged for 5 min at 3500 g. Aliquots were stored at −80° C. until the day of analysis. The amount of G-CSF in the plasma samples were quantified by utilizing a ELISA (R&D GambH, Wiesbaden) method, following the instruction of the manufacturer.
B1 yielded a half-life of 5.1 h.
On the same count and under the same terms, as for B2, the figure is 1.2 h.
On the same count and under the same terms, to B7 belongs 5.2 h.

In a further data set the test system is normocythaemic mouse system. Put plainly: EPO-bioassay in the normocythaemic mouse system. Format: in vivo. Conditions: mouse, in vivo. How it is done: Quantitative determination of EPO protein was performed by measuring UV absorption at 280 nm according to the Eur. Phar. (European Pharmacopeia 4, Monography 01/2002: 1316: erythropoietin concentrated solution) in a cuvette with 1 cm path length. In addition, EPO was quantitated by applying a RP-HPLC method using a RP-C4 column (Vydac Protein C4, Cat.#214TP5410, Grace Vydac, Ca, US); the HPLC method was calibrated using the erythropoietin BRP 1 reference standard (European Pharmacopeia, Conseil de l'Europe B.P. 907-F67029, Strasbourg Cedex 1).
The EPO-bioassay in the normocythaemic mouse system was performed according to the procedures described in the European Pharmacopeia 4, Monography 01/2002:1316: Erythropoietin concentrated solution and Ph. Eur. Chapter 5.3: “Statistical Analysis of Results of Biological Assays and Tests”; For the HES-modified EPO according to example 7.3 a value for the specific activity of 418 500 units per mg EPO of protein was measured indicating an approximately 4-5 fold higher specific activity when compared to the EPO starting material.
Turning to “EPO HES according to example 7.3: recombinant human EPO conjugated with aldehydo-HES of example 7.2 (MW 57,000 D, DS 0.76) by reductive amination”, the “Calculated specific activity of EPO sample (based on A280 and RP-HPLC determination)” value was 418500 U/mg; the “higher specific activity when compared to the EPO starting material” value is 4-5 fold.
Consider “EPO starting material (not modified): recombinant human EPO, essentially same characteristics as Erypo or NeoRecormon”, for which the “Calculated specific activity of EPO sample (based on A280 and RP-HPLC determination)” value is given as 89000 U/mg.
Same read-out and setting: to “EPO starting material (Reaction control A): EPO reacted with aldehydo-HES without sodium cyanoborohydride (example 7.4)” belongs 88500 U/mg.

The same data set, now with this note: per mg EPO of protein.
On to “EPO HES according to example 7.3: recombinant human EPO conjugated with aldehydo-HES of example 7.2 (MW 57,000 D, DS 0.76) by reductive amination”, for which the specific activity is 418 500 units per mg.
